Results from PMC3228899 (Nature, 2011).
Blank lines part the entries; values can stand above or below the binder they belong to.

Experiments:
[1] = target: 3HA-Cln2-Cdk1 complex (budding yeast | budding yeast …, UniProt P20438 1-545; P00546 1-298)
[2] = target: Clb5-TAP-Cdk1 complex (budding yeast | budding yeast …, UniProt P30283 1-435; P00546 1-298); experiment: pull-down
Chain of Clb5-TAP-Cdk1 complex (P30283 whole entry, chain 1 of 2): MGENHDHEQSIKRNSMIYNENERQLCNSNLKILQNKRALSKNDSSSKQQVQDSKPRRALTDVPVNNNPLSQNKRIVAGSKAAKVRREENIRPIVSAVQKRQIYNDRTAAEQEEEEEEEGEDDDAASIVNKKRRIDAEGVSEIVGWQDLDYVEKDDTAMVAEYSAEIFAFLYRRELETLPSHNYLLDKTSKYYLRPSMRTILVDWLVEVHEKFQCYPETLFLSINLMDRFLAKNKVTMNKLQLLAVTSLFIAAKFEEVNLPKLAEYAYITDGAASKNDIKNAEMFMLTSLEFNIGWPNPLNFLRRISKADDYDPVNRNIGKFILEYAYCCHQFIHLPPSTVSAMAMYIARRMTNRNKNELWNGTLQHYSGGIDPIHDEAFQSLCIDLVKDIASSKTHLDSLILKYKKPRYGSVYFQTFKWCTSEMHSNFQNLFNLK
Chain of Clb5-TAP-Cdk1 complex (P00546 whole entry, chain 2 of 2): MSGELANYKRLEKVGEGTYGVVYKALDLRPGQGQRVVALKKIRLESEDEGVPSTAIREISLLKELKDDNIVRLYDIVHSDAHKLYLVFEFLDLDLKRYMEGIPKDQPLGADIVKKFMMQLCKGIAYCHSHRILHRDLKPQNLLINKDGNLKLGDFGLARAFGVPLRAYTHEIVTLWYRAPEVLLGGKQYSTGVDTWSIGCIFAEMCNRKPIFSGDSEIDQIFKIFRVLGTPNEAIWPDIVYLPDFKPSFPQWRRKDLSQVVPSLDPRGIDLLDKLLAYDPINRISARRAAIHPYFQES

Chain of 3HA-Cln2-Cdk1 complex (P20438 whole entry, chain 1 of 2): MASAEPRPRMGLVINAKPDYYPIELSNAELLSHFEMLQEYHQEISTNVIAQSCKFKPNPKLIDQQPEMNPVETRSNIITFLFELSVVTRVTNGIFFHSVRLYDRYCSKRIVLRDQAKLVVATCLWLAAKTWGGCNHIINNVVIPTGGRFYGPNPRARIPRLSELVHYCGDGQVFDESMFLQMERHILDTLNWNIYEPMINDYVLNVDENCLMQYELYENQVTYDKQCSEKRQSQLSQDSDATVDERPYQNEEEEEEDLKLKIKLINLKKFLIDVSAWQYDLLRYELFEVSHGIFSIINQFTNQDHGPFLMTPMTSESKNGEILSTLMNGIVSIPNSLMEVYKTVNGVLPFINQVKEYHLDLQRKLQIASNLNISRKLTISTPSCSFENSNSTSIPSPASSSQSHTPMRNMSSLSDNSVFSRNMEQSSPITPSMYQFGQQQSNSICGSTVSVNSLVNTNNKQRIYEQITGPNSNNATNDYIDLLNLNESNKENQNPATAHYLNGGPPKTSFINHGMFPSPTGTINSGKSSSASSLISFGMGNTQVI
Chain of 3HA-Cln2-Cdk1 complex (P00546 whole entry, chain 2 of 2): as the sequence (P00546 whole entry, chain 2 of 2) above

stoichiometry N [1]: ~1 Cks1:Cdk1
B1: Cks1 (endogenous, in yeast) (natural protein, UniProt P20486 1-150, looked up)
chain: MYHHYHAFQGRKLTDQERARVLEFQDSIHYSPRYSDDNYEYRHVMLPKAMLKVIPSDYFNSEVGTLRILTEDEWRGLGITQSLGWEHYECHAPEPHILLFKRPLNYEAELRAATAAAQQQQQQQQQQQQQQQQHQTQSISNDMQVPPQIS

binding result [2]: binds
B2: full-length Sic1 (natural protein, budding yeast, UniProt P38634 1-284, looked up)
chain: MTPSTPPRSRGTRYLAQPSGNTSSSALMQGQKTPQKPSQNLVPVTPSTTKSFKNAPLLAPPNSNMGMTSPFNGLTSPQRSPFPKSSVKRTLFQFESHDNGTVREEQEPLGRVNRILFPTQQNVDIDAAEEEEEGEVLLPPSRPTSARQLHLSLERDEFDQTHRKKIIKDVPGTPSDKVITFELAKNWNNNSPKNDARSQESEDEEDIIINPVRVGKNPFASDELVTQEIRNERKRAMLRENPDIEDVITYVNKKGEVVEKRRLTDEEKRRFKPKALFQSRDQEH
